Earlier results on one substance are cited in patent US12116388B2, “Amylin receptor agonists” (Novo Nordisk A/S, priority 2022, dated 2024).

For the data set the following is noted: endogenous amylin, background statement; cited from earlier work.

For the substance “amylin (KCNTATCATQRLANFLVHSSNNFGAILSSTNVGSNTY; listed as Homo sapiens) [Endogenous amylin, 37-amino acid long polypeptide hormone co-secreted with insulin from the pancreatic beta-cell]”, the half-life was 15 to 20 min.

As a reminder, the half-life is how long it takes for the measured level to halve.
